In patent publication US20230227838A1, “ENHANCED CELL SURVIVAL AGAINST BIOTIC AND ABIOTIC STRESSES THROUGH SALICYLICK ACID-INDUCED NPR1 CONDENSATES” (priority 2020, published 2023) one finds Normalized Fold Change: SA vs Mock data, which are given here for eight molecules.

For the test, the target named is sim3-GFP (Arabidopsis thaliana) (UniProt P93002). The test can be described thus: sim3-GFP IP, LC-MS/MS.
Chain of sim3-GFP (Arabidopsis thaliana) (P93002 other isoform, or with tags, fused parts or gaps): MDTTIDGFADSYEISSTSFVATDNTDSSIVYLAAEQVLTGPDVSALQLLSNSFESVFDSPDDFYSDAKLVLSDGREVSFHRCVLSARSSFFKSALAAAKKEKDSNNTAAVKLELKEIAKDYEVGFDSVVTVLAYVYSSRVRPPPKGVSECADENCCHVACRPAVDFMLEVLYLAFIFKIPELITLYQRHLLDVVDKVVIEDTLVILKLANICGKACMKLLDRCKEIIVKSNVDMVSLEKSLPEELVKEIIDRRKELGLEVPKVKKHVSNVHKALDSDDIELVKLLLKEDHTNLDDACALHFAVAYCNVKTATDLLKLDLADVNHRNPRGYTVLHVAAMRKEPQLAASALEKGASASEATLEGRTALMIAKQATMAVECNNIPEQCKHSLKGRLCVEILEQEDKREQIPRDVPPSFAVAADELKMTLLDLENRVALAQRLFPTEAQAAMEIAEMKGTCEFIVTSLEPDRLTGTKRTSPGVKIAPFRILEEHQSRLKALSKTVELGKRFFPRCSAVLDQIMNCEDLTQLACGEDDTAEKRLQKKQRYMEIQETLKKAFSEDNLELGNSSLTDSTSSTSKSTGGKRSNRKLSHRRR

B1: UBP14, ubiquitin-specific protease 14 (protein, UniProt Q8L6Y1 1-797, looked up)
Ubiquitin carboxyl-terminal hydrolase 14: MELLRSNLSRVQIPEPTHRIYKHECCISFDTPRSEGGLFVDMNSFLAFGKDYVSWNYEKTGNPVYLHIKQTRKSIPEDRPLKKPTLLAIGVDGGFDNNEPEYEESYSIVILPDFVSLPFPSVELPEKVRIAVDTVVNAVGAERKEQVAAWTAEKKLISEHALTLQQIKSGIVIPPSGWKCSKCDKTENLWLNLTDGMILCGRKNWDGTGGNNHAVEHYKETAYPLAVKLGTITADLEAADVYSYPEDDSVLDPLLAEHLAHFGIDFSSMQKTEMTTAERELDQNTNFDWNRIQESGKELVPVFGPGYTGLVNLGNSCYLAATMQIVFSTHSFISRYFSHQSLKMAFEMAPADPTLDLNMQLTKLGHGLLSGKYSMPATQKDATTGDPRQEGIPPRMFKNVIAASHAEFSSMRQQDALDFFLHLVGKVERASNTTPDLDPSRSFKFGIEEKILCPSGKVGYNKREDCILSLNIPLHEATNKDELEAFHKQKAGKGLEENDMRSSDEIVRPRVPLEACLANFASSEPIEDYYSSALKGMTTAIKTTGLTSFPDYLVLHMRKFVMEEGWVPKKLDVYIDVPDVIDISHMRSKGLQPGEELLPDGVPEEVMESAQPVANEEIVAQLVSMGFSQLHCQKAAINTSNAGVEEAMNWLLSHMDDPDIDAPISHQTSDIDQSSVDTLLSFGFAEDVARKALKASGGDIEKATDWVFNNPNASVSDMDVSSSNSAQTPAQSGLPDGGGKYKLFGIVSHMGTSVHCGHYVAHILKEGRWVIFNDDKVGISTDPPKDMGYVYFFQRLD
B1 displayed a Normalized Fold Change: SA vs Mock of 5.02 fold.

B2: UBP24, ubiquitin-specific protease 24 (protein, UniProt Q9FPS3 1-551, looked up)
Ubiquitin carboxyl-terminal hydrolase 24: MSEKKVFVFGSFTEHETRSFFEQKPTKDPQNSKDKCVGSIQFGSLNLAAENSSVNTNGELKKGEADGTVKSAGSQERLDASRPASSDKNNDSDAKLPRKNSLRVPEHVVQNGIIKEISESNKSLNNGVAVKTDPIGLDNLSMSDGESDPVYKASSSKFQALDNEDFSSDSSSGSIQRKKNLKVPTESVPPVKDFTPRGLINAGNLCFLNATLQALLSCSPFVQLLQKIQLQDIPKADSPTLAAFSEFISELDVPSSSSIRNNVTVVEAGRPFRPAMFEGVLRNFTPDVLNNMSGRPRQEDAQEFLSFIMDQMHDELLKLKEQSPKVTASKSSVISSANDDGDEWETVGPKNKSAVTRTQSFVPSELSEIFGGQLKSVVKAKGTKASATVQPYLLLHLDIHPDGVQGIEDALHLFSAQEDLEGYRASVTGKTGVVSASKSIKIQKLSKIMILHLMRFSYGSQGSTKLRKGVKFPLELNLNRSHLVSLSNESLRYELVATITHHGWDPSKGHYTTDARRKNGQWLRFDDASVTPIGTKLVLHDQAYVLFYKQV
Regarding B2, the Normalized Fold Change: SA vs Mock worked out at 2580 fold.

B3: SINAT2, seven in absentia of Arabidopsis 2 (protein, UniProt Q9M2P4 1-308, looked up)
E3 ubiquitin-protein ligase SINAT2: MAPGGSALKEVMESNSTGMDYEVKTAKVEVNNNKPTKPGSAGIGKYGIHSNNGVYELLECPVCTNLMYPPIHQCPNGHTLCSNCKLRVQNTCPTCRYELGNIRCLALEKVAESLEVPCRYQNLGCHDIFPYYSKLKHEQHCRFRPYTCPYAGSECSVTGDIPTLVVHLKDDHKVDMHDGCTFNHRYVKSNPHEVENATWMLTVFNCFGRQFCLHFEAFQLGMAPVYMAFLRFMGDENEAKKFSYSLEVGAHGRKLTWQGIPRSIRDSHRKVRDSQDGLIIPRNLALYFSGGDRQELKLRVTGRIWKEE
The molecule B3 displayed a Normalized Fold Change: SA vs Mock of 2.99 fold.

B4: CLIP-associated protein (protein, UniProt Q8RWY6 1-1439, looked up)
CLIP-associated protein: MEEALEMARAKDTKERMAAVERLHQLLEASRKSLSPAEVTSLVDSCLDLLKDSNFRVSQGALQALASAAVLAGEHLKLHLNALVPAVVERLGDSKQPVRDAARRLLTTLMEVSSPTIIVERAGSYAWMHKSWRVREEFARTVTSAIGLFASTELPLQRVILAPILQMLNDPNQAVREAAILCIEEMYMQGGSQFREELQRHHLPSYMVKDINARLERIEPQLRSTDGRSAHHVVNEVKASSVNPKKSSPRAKAPTRENSLFGGDADITEKPIEPIKVYSEKELIREFEKIAATLVPEKDWSMRISAMRRVEGLVAGGATDYSCFRGLLKQLVGPLSTQLADRRSTIVKQACHLLCLLSKELLGDFEACAETFIPVLFKLVVITVLVIAESADNCIKTMLRNCKAARVLPRIAESAKHDRNAILRARCCEYALLTLEHWPDAPEIQRSVDLYEDLIRCCVADAMSEVRATARMCYRMFAKTWPDRSRRLFSSFDPVIQRLINEEDGGIHRRHASPSVRERHSQPSFSQTSAPSNLPGYGTSAIVAMDRSSNLSSGGSLSSGLLLSQSKDVNKGSERSLESVLQSSKQKVSAIESMLRGLHISDRQNPAALRSSSLDLGVDPPSSRDPPFHAVAPASNSHTSSAAAESTHSINKGSNRNGGLGLSDIITQIQASKDSGRSSYRGNLLSESHPTFSSLTAKRGSERNERSSLEESNDAREVRRFMAGHFDRQQMDTAYRDLTFRESNASHVPNFQRPLLRKNVGGRMSAGRRRSFDDSQLQIGDISNFVDGPASLNEALNDGLNSSSDWCARVAAFNFLQTLLQQGPKGAQEVIQSFEKVMKLFLRHLDDPHHKVAQAALSTLADLIPSCRKPFESYMERVLPHVFSRLIDPKEVVRQPCSSTLEIVSKTYSVDSLLPALLRSLDEQRSPKAKLAVIEFAINSFNRYAGNPEISGNSGILKLWLAKLTPLTRDKNTKLKEASITCIISVYNHYDSAGLLNYILSLSVEEQNSLRRALKQYTPRIEVDLLNYMQSKKEKQRIKSYDPSDAIGTSSEEGYAGASKKNIFLGRYSGGSIDSDSGRKWSSSQEPTMITGGVGQNVSSGTQEKLYQNVRTGISSASDLLNPKDSDYTFASAGQNSISRTSPNGSSENIEILDDLSPPHLEKNGLNLTSVDSLEGRHENEVSRELDLGHYMLTSIKVNTTPESGPSIPQILHMINGSDGSPSSSKKSGLQQLIEASVANEESVWTKYFNQILTVVLEVLDDEDFSIKELALSLISEMLKSQKDAMEDSVEIVIEKLLHVSKDTVPKVSTEAEQCLTTVLSQYDPFRCLSVIVPLLVTEDEKTLVACINCLTKLVGRLSQEELMDQLSSFLPAVFEAFGSQSADVRKTVVFCLVDIYIMLGKAFLPYLEGLNSTQVRLVTIYANRISQARNGAPIDADT
As for B4, the Normalized Fold Change: SA vs Mock was found to be 2550 fold.

B5: atnudt5, NUDT5, nudix hydrolase homolog 5 (protein, UniProt Q9SJC6 1-302, looked up)
Nudix hydrolase 5: MGLTKNFAFLVFCCQRYCSMDGEAFEISLLDGEEDRFGGTVVNLMEVESMTIGDFDSKLDVSLKAWKDQGKKGIWIKLPSELSSLVDTAIKKGFTYHHAENEYVMLTFWLPEPPSTLPCNASHRIGIGAFVLNKNGEMLVVQENSGYFKDKNVWKVPTGTIKEGESIWAGAVREVKEETDIDAEFVEVLSFMESHQAVWQRKTDIFFVCELEARTFEIQKQDSEIHAAKWMPVEEYVNQPYHNKEGNEMFKLIANICLKRSREKYTGFVLTTNSAKKSLYCSVDHANLLKETADQASTSLSD
With B5, the Normalized Fold Change: SA vs Mock amounted to 44.1 fold.

B6: NTF2B, nuclear transport factor 2B (protein, UniProt Q9C7F5 2-126, looked up)
Nuclear transport factor 2B: SQMDPDAVSKAFVEHYYSTFDTNRVGLAGLYQEASMLTFEGQKIQGVQSIVAKLTSLPFQQCKHHISTVDCQPSGPASGMLVFVSGNLQLAGEEHALKFSQMFHLMPTPQGSFYVFNDIFRLNYA
B6 showed a Normalized Fold Change: SA vs Mock of 11.2 fold.

B7: VLN2, villin 2 (protein, UniProt O81644 1-976, looked up)
Villin-2: MSTKVLDPAFQGAGQKPGTEIWRIENFEAVPVPKSEHGKFYMGDTYIVLQTTQNKGGAYLFDIHFWIGKDTSQDEAGTAAVKTVELDAVLGGRAVQHREIQGHESDKFLSYFKPCIIPLEGGVASGFKTVEEEVFETRLYTCKGKRAIRLKQVPFARSSLNHDDVFILDTEEKIYQFNGANSNIQERAKALEVVQYLKDKYHEGTCDVAIVDDGKLDTESDSGAFWVLFGGFAPIGRKVANDDDIVPESTPPKLYCITDGKMEPIDGDLSKSMLENTKCYLLDCGAEIYIWVGRVTQVDERKAASQSAEEFLASENRPKATHVTRVIQGYESHSFKSNFDSWPSGSATPGNEEGRGKVAALLKQQGVGLKGIAKSAPVNEDIPPLLESGGKLEVWYVNGKVKTPLPKEDIGKLYSGDCYLVLYTYHSGERKDEYFLSCWFGKKSIPEDQDTAIRLANTMSNSLKGRPVQGRIYEGKEPPQFVALFQPMVVLKGGLSSGYKSSMGESESTDETYTPESIALVQVSGTGVHNNKAVQVETVATSLNSYECFLLQSGTSMFLWHGNQSTHEQLELATKVAEFLKPGITLKHAKEGTESSTFWFALGGKQNFTSKKASSETIRDPHLFSFAFNRGKFQVEEIYNFAQDDLLTEDIYFLDTHAEVFVWVGQCVEPKEKQTVFEIGQKYIDLAGSLEGLHPKVPIYKINEGNEPCFFTTYFSWDATKAIVQGNSFQKKASLLFGTHHVVEDKSNGGNQGLRQRAEALAALNSAFNSSSNRPAYSSQDRLNESHDGPRQRAEALAALSSAFNSSSSSTKSPPPPRPVGTSQASQRAAAVAALSQVLVAENKKSPDTSPTRRSTSSNPADDIPLTEAKDEEEASEVAGLEAKEEEEVSPAADETEAKQETEEQGDSEIQPSGATFTYEQLRAKSENPVTGIDFKRREAYLSEEEFQSVFGIEKEAFNNLPRWKQDLLKKKFDLF
B7 had a Normalized Fold Change: SA vs Mock of 3.54 fold.

B8: SAE2, SUMO-activating enzyme 2 (protein, UniProt Q9SJT1 2-700, looked up)
SUMO-activating enzyme subunit 2: ATQQQQSAIKGAKVLMVGAGGIGCELLKTLALSGFEDIHIIDMDTIEVSNLNRQFLFRRSHVGQSKAKVARDAVLRFRPNINIRSYHANVKNPEFDVDFFKQFDVVLNGLDNLDARRHVNRLCLAADVPLVESGTTGFLGQVTVHIKGKTECYECQTKPAPKTYPVCTITSTPTKFVHCIVWAKDLLFAKLFGDKNQDNDLNVRSNNSASSSKETEDVFERSEDEDIEQYGRKIYDHVFGSNIEAALSNEETWKNRRRPRPIYSKDVLPESLTQQNGSTQNCSVTDGDLMVSAMPSLGLKNPQELWGLTQNSLVFIEALKLFFAKRKKEIGHLTFDKDDQLAVEFVTAAANIRAESFGIPLHSLFEAKGIAGNIVHAVATTNAIIAGLIVIEAIKVLKKDVDKFRMTYCLEHPSKKLLLMPIEPYEPNPACYVCSETPLVLEINTRKSKLRDLVDKIVKTKLGMNLPLIMHGNSLLYEVGDDLDDIMVANYNANLEKYLSELPSPILNGSILTVEDLQQELSCKINVKHRFFSEILNPVLNSVWFLIILPSTFPKLFHFTESRNQDGLSLDIILGFSNVTIRRVLTMFETGRRLTHPLLILFCHREEFDEEKEPEGMVLSGWTPSPATNGESASTSNNENPVDVTESSSGSEPASKKRRLSETEASNHKKETENVESEDDDIMEVENPMMVSKKKIRVE
As for B8, the Normalized Fold Change: SA vs Mock amounted to 5.82 fold.
